This is an account of results in US20160289298A1 (ACCELERON PHARMA, published 2016).

Where only a bound is given, the exact number is not on record here.

The chains are these.
B2: ALK3-Fc homodimeric complex (Fc fusion, UniProt P36894 24-152, looked up)
chain: QNLDSMLHGTGMKSDSDQKKSENGVTLAPEDTLPFLKCYCSGHCPDDAINNTCITNGHCFAIIEEDDQGETTLASGCMKYEGSDFQCKDSPKAQLRRTIECCRTNLCNQYLQPTLPPVVIGPFFDGSIR
notes: also called homodimeric ALK3-Fc; not shown: linker and Fc portion of the homodimer
B3: BMP2 (ligand, UniProt P12643 283-396, looked up)
chain: QAKHKQRKRLKSSCKRHPLYVDFSDVGWNDWIVAPPGYHAFYCHGECPFPLADHLNSTNHAIVQTLVNSVNSKIPKACCVPTELSAISMLYLDENEKVVLKNYQDMVVEGCGCR
B4: BMPRII-Fc homodimeric complex (Fc fusion, UniProt Q13873 27-150, looked up)
chain: SQNQERLCAFKDPYQQDLGIGESRISHENGTILCSKGSTCYGLWEKSKGDINLVKQGCWSHIGDPQECHYEECVVTTTPPSIQNGTYRFCCCSTDLCNVNFTENFPPPDTTPLSPPHSFNRDET
notes: also called homodimeric BMPRII-Fc; not shown: linker and Fc portion of the homodimer
B8: GDF11 (ligand, UniProt O95390 299-407, looked up)
chain: NLGLDCDEHSSESRCCRYPLTVDFEAFGWDWIIAPKRYKANYCSGQCEYMFMQKYPHTHLVQQANPRGSAGPCCTPTKMSPINMLYFNDKQQIIYGKIPGMVVDRCGCS
notes: also called BMP11
B10: activin B (ligand, UniProt P09529 293-407, looked up)
chain: GLECDGRTNLCCRQQFFIDFRLIGWNDWIIAPTGYYGNYCEGSCPAYLAGVPGSASSFHTAVVNQYRMRGLNPGTVNSCCIPTKLSTMSMLYFDDEYNIVKRDVPNMIVEECGCA

The target of assay [1] is B4. The assay is described as follows: SPR (Biacore), receptor-Fc captured by anti-Fc antibody, ligand injected. The procedure:
(§1) Ligands were injected and allowed to flow over the captured receptor protein.

A further assay concerns the target T1, BMP5 (UniProt P22003 317-454, limits assumed).
T1 sequence (looked up): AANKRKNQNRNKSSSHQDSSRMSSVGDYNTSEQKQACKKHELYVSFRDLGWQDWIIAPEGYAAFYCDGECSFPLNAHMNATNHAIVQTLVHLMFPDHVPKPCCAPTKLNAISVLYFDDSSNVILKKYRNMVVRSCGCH
The description is as above.

The target in the next assay is T2, BMP6 (UniProt P22004 382-513, limits assumed).
T2 sequence (looked up): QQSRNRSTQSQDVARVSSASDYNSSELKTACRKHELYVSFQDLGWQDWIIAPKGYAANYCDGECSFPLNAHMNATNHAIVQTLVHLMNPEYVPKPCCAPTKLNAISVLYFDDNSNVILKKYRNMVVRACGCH
The description is as above. As for the experimental part:
as §1

The next assay has as its target T3, BMP7 (UniProt P18075 293-431).
T3 construct: also called OP-1
T3 sequence (looked up): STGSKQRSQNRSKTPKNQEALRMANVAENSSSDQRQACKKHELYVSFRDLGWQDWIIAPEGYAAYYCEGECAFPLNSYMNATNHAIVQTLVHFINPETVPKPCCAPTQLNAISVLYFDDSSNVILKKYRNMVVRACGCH
The assay is described as above. The procedure:
as §1

The target in a further assay is T4, BMP15 (UniProt O95972 268-392).
T4 construct: also called GDF9b
T4 sequence (looked up): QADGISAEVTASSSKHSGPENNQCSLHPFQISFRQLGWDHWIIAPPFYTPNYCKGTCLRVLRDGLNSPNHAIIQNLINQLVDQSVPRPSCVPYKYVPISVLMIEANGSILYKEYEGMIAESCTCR
The description is as above. The procedure:
as §1

A further assay deals with T5, activin A (UniProt P08476 311-426).
T5 sequence (looked up): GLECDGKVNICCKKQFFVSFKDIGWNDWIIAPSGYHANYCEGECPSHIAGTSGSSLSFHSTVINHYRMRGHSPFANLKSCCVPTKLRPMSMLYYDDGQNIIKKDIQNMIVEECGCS
Nature of the assay: SPR (Biacore), legend of FIG. 6. As for the experimental part:
as §1
In general terms: In SPR one partner is held on a chip, and binding of the other changes the refractive index at the surface.

The assay “activin B” deals with B10. Nature of the assay: SPR (Biacore), legend of FIG. 6. The procedure: as §1
A further assay has as its target T6, GDF8 (UniProt O14793 267-375).
T6 construct: also called myostatin
T6 sequence (looked up): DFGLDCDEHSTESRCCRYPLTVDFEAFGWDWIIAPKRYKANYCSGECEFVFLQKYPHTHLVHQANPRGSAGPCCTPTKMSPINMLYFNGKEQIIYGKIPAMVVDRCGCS
The assay is described as follows: SPR (Biacore), legend of FIG. 6. The procedure:
as §1

The assay “GDF11” concerns the target B8. Nature of the assay: SPR (Biacore), legend of FIG. 6. As for the experimental part:
as §1

The assay “BMP2” has as its target B3. Nature of the assay: SPR (Biacore), receptor-Fc captured by anti-Fc antibody, ligand injected.
The target in the next assay is T7, BMP4 (UniProt P12644 293-408).
T7 sequence (looked up): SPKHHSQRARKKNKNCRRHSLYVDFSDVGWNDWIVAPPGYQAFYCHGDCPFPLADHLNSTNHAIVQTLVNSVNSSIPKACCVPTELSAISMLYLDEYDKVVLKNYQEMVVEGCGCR
Described as above.

The target in assay [2] is B2. Described as above.
Assay [3] deals with T8, ActRIIA-Fc homodimeric complex (UniProt P27037 21-135).
T8 construct: also called homodimeric ActRIIA-Fc; not shown: linker and Fc portion of the homodimer
T8 sequence (P27037 21-135, one chain of several): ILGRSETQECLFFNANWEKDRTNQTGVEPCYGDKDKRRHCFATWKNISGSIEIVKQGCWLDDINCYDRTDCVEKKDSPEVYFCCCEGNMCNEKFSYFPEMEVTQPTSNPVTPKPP
The assay is described as above.

B1: GDF6 (ligand, UniProt Q6KF10 336-455, looked up)
chain: TAFASRHGKRHGKKSRLRCSKKPLHVNFKELGWDDWIIAPLEYEAYHCEGVCDFPLRSHLEPTNHAIIQTLMNSMDPGSTPPSCCVPTKLTPISILYIDAGNNVVYKQYEDMVVESCGCR
notes: also called BMP13
As a reminder, the Kd is the concentration at which binding is half-saturated. As to B1, the Kd in assay [1] is above 88 nM.
With B2, in the assay with BMP5, the binding result was “binds”.
B3 had a Kd in [1] above 2000 nM.
In general, koff refers to the first-order rate constant of dissociation. A higher koff goes with a short-lived complex. In general, kon refers to the second-order rate constant of association. Take B4: in the assay with BMP6, the Kd is above 8.9 nM. This molecule also gave a Kd with BMP7 above 38 nM. In the assay with BMP15, the dissociation constant Kd is 0.28 nM, the koff worked out at 0.0028 s⁻¹ and the kon is 9.9e+06 M⁻¹ s⁻¹.

B5: single-arm ActRIIB-Fc:Fc heterodimeric protein complex (Fc fusion)
chain 1: GRGEAETRECIYYNANWELERTNQSGLERCEGEQDKRLHCYASWRNSSGTIELVKKGCWLDDFNCYDRQECVATEENPQVYFCCCEGNFCNERFTHLPEAGGPEVTYEPPPTAPTGGGTHTCPPCPAPELLGGPSVFLFPPKPKDTLMISRTPEVTCVVVDVSHEDPEVKFNWYVDGVEVHNAKTKPREEQYNSTYRVVSVLTVLHQDWLNGKEYKCKVSNKALPAPIEKTISKAKGQPREPQVYTLPPSRKEMTKNQVSLTCLVKGFYPSDIAVEWESNGQPENNYKTTPPVLKSDGSFFLYSKLTVDKSRWQQGNVFSCSVMHEALHNHYTQKSLSLSPGK
chain 2: SNTKVDKRVTGGGTHTCPPCPAPELLGGPSVFLFPPKPKDTLMISRTPEVTCVVVDVSHEDPEVKFNWYVDGVEVHNAKTKPREEQYNSTYRVVSVLTVLHQDWLNGKEYKCKVSNKALPAPIEKTISKAKGQPREPQVYTLPPSREEMTKNQVSLTCLVKGFYPSDIAVEWESNGQPENNYDTTPPVLDSDGSFFLYSDLTVDKSRWQQGNVFSCSVMHEALHNHYTQKSLSLSPGK
notes: C-terminal lysine optionally removed; also called single-arm ActRIIB-Fc heterodimeric complex
For the molecule B5, the binding result with activin A, with activin B, with GDF8 and with GDF11 was “binds” in each case.

B6: single-arm ALK3-Fc:Fc heterodimeric protein complex (Fc fusion)
chain 1: GAQNLDSMLHGTGMKSDSDQKKSENGVTLAPEDTLPFLKCYCSGHCPDDAINNTCITNGHCFAIIEEDDQGETTLASGCMKYEGSDFQCKDSPKAQLRRTIECCRTNLCNQYLQPTLPPVVIGPFFDGSIRTGGGTHTCPPCPAPELLGGPSVFLFPPKPKDTLMISRTPEVTCVVVDVSHEDPEVKFNWYVDGVEVHNAKTKPREEQYNSTYRVVSVLTVLHQDWLNGKEYKCKVSNKALPAPIEKTISKAKGQPREPQVYTLPPSREEMTKNQVSLTCLVKGFYPSDIAVEWESNGQPENNYDTTPPVLDSDGSFFLYSDLTVDKSRWQQGNVFSCSVMHEALHNHYTQKSLSLSPG
chain 2: SNTKVDKRVTGGGTHTCPPCPAPELLGGPSVFLFPPKPKDTLMISRTPEVTCVVVDVSHEDPEVKFNWYVDGVEVHNAKTKPREEQYNSTYRVVSVLTVLHQDWLNGKEYKCKVSNKALPAPIEKTISKAKGQPREPQVYTLPPSRKEMTKNQVSLTCLVKGFYPSDIAVEWESNGQPENNYKTTPPVLKSDGSFFLYSKLTVDKSRWQQGNVFSCSVMHEALHNHYTQKSLSLSPGK
notes: also called single-arm ALK3-Fc heterodimer
As for B6, the binding result with BMP2, with BMP4 and in the assay with BMP5 was “binds” in each case.

B7: BMP10 (ligand, UniProt O95393 317-424, looked up)
chain: NAKGNYCKRTPLYIDFKEIGWDSWIIAPPGYEAYECRGVCNYPLAEHLTPTKHAIIQALVHLKNSQKASKACCVPTKLEPISILYLDKGVVTYKFKYEGMAVSECGCR
As to B7, the binding result in [2] was “no binding”. The binding result in assay [3] is on record as “binds”. In assay [1], this molecule registered a Kd of 0.098 nM, an off-rate constant (koff) of 0.0025 s⁻¹ and a kon of 2.6e+07 M⁻¹ s⁻¹.
With B8, the values for the binding result in assay [2] and in assay [3] were “no binding” and “binds”, respectively.

B9: BMP9 (ligand, UniProt Q9UK05 320-429, looked up)
chain: SAGAGSHCQKTSLRVNFEDIGWDSWIIAPKEYEAYECKGGCFFPLADDVTPTKHAIVQTLVHLKFPTKVGKACCVPTKLSPISVLYKDDMGVPTLKYHYEGMSVAECGCR
notes: also called GDF2
In assay [1], B9 showed a Kd of 2.1 nM, a koff of 0.026 s⁻¹ and a kon of 1.2e+07 M⁻¹ s⁻¹.
In [1], B10 returned a Kd of 3.8 nM, an off-rate (koff) of 0.075 s⁻¹ and a kon of 2e+07 M⁻¹ s⁻¹.
